# Reference: publication PMC10136559, “An Aptamer That Rapidly Internalizes into Cancer Cells Utilizes the Transferrin Receptor Pathway”
# Key:
# [1] = molecular target: T1, human transferrin receptor 1 (hTfR) (Homo sapiens, UniProt P02786 89-760); experiment: bead-based flow cytometry; apparent Kd; SB1T: 40 mM HEPES, 125 mM NaCl, 5 mM KCl, 1 mM MgCl2, 1 mM CaCl2, 0.05% Tween20, 1 mg/mL salmon sperm DNA; 37 °C, 30 min; pH not stated; settings: protein: recombinant, tags: His, chain copies: 2, label: 5' DyLight 650 via thiol C6
# T1 sequence (P02786 89-760): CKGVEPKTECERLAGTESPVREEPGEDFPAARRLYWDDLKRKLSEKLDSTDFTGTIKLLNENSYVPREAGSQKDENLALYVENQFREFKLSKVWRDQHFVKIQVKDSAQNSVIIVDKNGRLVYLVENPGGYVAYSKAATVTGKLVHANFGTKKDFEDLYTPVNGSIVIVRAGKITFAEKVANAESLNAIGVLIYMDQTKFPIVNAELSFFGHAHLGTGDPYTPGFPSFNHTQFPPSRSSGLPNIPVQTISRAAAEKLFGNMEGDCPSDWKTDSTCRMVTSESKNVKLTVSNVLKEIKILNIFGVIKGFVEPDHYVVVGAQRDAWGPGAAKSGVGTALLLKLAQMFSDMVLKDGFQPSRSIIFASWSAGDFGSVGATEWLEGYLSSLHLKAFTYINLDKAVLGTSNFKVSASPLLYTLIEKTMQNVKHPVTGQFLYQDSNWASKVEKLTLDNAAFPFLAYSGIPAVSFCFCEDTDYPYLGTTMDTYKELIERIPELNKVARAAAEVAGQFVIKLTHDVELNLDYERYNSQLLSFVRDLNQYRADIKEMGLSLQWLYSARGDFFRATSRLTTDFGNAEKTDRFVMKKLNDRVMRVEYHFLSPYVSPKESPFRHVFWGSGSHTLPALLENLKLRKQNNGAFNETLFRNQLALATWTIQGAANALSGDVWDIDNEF
# [2] = molecular target: mouse transferrin receptor (mTfR) (Mus musculus, UniProt Q62351 89-763); experiment: bead-based flow cytometry; 200 nM aptamer; SB1T: 40 mM HEPES, 125 mM NaCl, 5 mM KCl, 1 mM MgCl2, 1 mM CaCl2, 0.05% Tween20, 1 mg/mL salmon sperm DNA; 37 °C, 30 min; pH not stated; settings: protein: recombinant, chain copies: 2, label: 5' DyLight 650 via thiol C6
# Sequence of mouse transferrin receptor (mTfR) (Q62351 89-763): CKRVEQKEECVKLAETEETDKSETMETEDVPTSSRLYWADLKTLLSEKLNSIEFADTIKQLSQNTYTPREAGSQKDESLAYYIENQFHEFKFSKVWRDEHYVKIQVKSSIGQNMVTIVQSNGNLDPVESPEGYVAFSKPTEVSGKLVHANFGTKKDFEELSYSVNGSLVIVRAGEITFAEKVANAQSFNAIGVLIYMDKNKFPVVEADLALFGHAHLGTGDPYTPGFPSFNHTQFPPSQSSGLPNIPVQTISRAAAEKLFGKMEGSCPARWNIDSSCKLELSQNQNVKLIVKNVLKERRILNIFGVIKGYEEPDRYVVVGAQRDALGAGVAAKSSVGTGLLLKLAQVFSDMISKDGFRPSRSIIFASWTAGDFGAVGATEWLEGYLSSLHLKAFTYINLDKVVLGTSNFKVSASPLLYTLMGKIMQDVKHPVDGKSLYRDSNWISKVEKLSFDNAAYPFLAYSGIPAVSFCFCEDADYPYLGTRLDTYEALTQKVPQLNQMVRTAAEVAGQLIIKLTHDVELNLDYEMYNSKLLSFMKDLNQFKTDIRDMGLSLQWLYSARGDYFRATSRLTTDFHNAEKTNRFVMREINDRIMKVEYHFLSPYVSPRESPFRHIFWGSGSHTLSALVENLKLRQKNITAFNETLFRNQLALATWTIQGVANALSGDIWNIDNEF
# [3] = molecular target: T1, human transferrin receptor 1 (hTfR); experiment: bead-based flow cytometry; apparent Kd; 0-100 nM aptamer range; SB1T: 40 mM HEPES, 125 mM NaCl, 5 mM KCl, 1 mM MgCl2, 1 mM CaCl2, 0.05% Tween20, 1 mg/mL salmon sperm DNA; 37 °C, 30 min; pH not stated; settings: protein: recombinant; tags: His; chain copies: 2; label: 5' DyLight 650 via thiol C6
# [4] = hairpin with bulge and loop (predicted)
binder,measurement,setting,value
"GGGGGAUCAAUCCAAGGGACCCGGAAACGCUCCCUUACACCCC (XNA, 2'-fluoro pyrimidines; 3' inverted dT) [C2.min (DL650-C2.min)]",Kd,[1],7.44 nM
"GGCUUUCGGGCUUUCGGCAACAUCAGCCCCUCAGCC (XNA, 2'-fluoro pyrimidines; 3' inverted dT) [E3 (DL650-E3)]",binding result,[2]; [4],no binding
same,Kd,[1]; [4],4.23 nM
"GGGUUCUACGAUAAACGGUUAAUGACCAGCUUAUGGCUGGCAGUUCCC (XNA, 2'-fluoro pyrimidines; 3' inverted dT) [Waz (DL650-Waz)]",Kd,[3],22.1 nM
same,binding result,[2],no binding
"GGCGUAGUGAUUAUGAAUCGUGUGCUAAUACACGCC (XNA, 2'-fluoro pyrimidines; 3' inverted dT) [C36 (DL650-C36)]",binding result,[2],no binding
